Assays:
[1] = target: CNNM2 CBS-pair domain (Homo sapiens) (UniProt Q9H8M5); details: cited from earlier work
[2] = target: CNNM3 CBS-pair domain (Homo sapiens) (UniProt Q8NE01); details: cited from earlier work
[3] = target: CNNM3 CBS-pair domain as a GST fusion (human) (UniProt Q8NE01); experiment: ITC; syringe 160 μM PRL2 or PRL3, cell 16 μM CNNM3 CBS-pair domain as a GST fusion; 22 °C; 30 injections of 10 μl; fitted to a single set of identical sites
Sequence of CNNM3 CBS-pair domain as a GST fusion (human) (Q8NE01 309-452): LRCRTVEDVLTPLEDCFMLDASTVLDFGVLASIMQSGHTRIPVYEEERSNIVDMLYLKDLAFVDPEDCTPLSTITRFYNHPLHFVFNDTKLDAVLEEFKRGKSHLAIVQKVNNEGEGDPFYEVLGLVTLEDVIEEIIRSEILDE

Sequence of PRL1 (Q93096 1-170): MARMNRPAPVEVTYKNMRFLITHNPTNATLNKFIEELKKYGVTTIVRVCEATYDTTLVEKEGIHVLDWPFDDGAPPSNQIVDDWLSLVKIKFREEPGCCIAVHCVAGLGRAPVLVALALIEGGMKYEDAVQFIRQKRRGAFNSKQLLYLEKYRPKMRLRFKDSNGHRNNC
Sequence of PRL2 (Q12974 1-164): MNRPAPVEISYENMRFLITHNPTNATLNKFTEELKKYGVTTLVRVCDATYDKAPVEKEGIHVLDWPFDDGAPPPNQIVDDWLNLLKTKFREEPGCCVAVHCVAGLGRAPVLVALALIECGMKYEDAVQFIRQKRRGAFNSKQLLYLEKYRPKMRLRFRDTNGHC
Sequence of CNNM2 CBS-pair domain (Homo sapiens) (Q9H8M5 429-584): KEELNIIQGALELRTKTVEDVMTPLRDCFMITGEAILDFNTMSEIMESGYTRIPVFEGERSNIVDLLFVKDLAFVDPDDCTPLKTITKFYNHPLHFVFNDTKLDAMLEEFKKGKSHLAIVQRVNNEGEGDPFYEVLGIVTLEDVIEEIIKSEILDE
Sequence of CNNM3 CBS-pair domain (Homo sapiens) (Q8NE01 309-452): as the sequence (Q8NE01 309-452) above

For PRL1 (from UniProt Q93096), the Kd [1] is given as 640 nM.
In the case of PRL2 (from UniProt Q12974), the Kd [2] is listed as 25 nM.
With “PRL2 phosphatase (as used in ITC) (from UniProt Q12974 1-167) (enzyme)” the dH [3] was -16.6 kcal/mol and the stoichiometry N [3] was 1.02.

— paper PMC5427921, “PRL3 phosphatase active site is required for binding the putative magnesium transporter CNNM3” (Scientific Reports, 2017)
